Source: patent US11167035B2, “Insulin compositions and method of making a composition” (Novo Nordisk A/S, priority 2005, dated 2021)

Experiment: SEC on Superose 6 PC, insulin self association
Assay type: physicochemical
Settings: 600 μM insulin
Procedure: Analysis by size exclusion chromatography (SEC) on a Superose 6 PC column (0.32*30 cm) using isotonic 10 mM tris-buffered saline optionally added 2 mM phenol at 37° C. and pH 7.3, injection volume of 20 μL, flow of 0.05 mL/min and run time 130 min. First reference of Blue dextran (>>5 MDa, KAV 0.0), Thyroglobulin (669 kDa, KAV 0.28), Ferritin (440 kDa, KAV 0.39), Ovalbumin (44.5 kDa, KAV 0.56), Ribonuclease (13.7 kDa, KAV 0.69) and a second reference of Albumin (66 kDa, KAV 0.53), Co(III)insulin-hexamer (35 kDa, KAV 0.61), and monomeric insulin X2 (6 kDa, KAV 0.73). Retention time of blue dextran was 17.9 min (to) and 0.74 min without column (td), and retention time of albumin (HSA) was about 34.1 min, KAV=(t−t0)/(V/f+td−t0) with
KAV area peak1 is measured from KAV=0 to KAV=0.46 (32 min) as relative area % of total area for KAV<0.46 corresponding to self association larger than albumin. For KAV peak 1 about 0.56 (albumin size) integration cut is between albumin size and insulin hexamer size.
For SEC method without phenol in eluent peak1 contain associated forms larger than albumin and peak2 contain dihexameric, hexameric, dimeric and monomeric forms of insulin.
For SEC method including 2 mM phenol in the eluent peak1 contain dihexameric and other larger forms of insulin and peak2 contain hexameric, dimeric and monomeric forms of insulin.
The formulations were studied after storage 2 week at 37C compared to storage at 5C by the SEC method described in example 4 using an eluent with 2 mM phenol. Reference formulations without citrate at 3, 5 and 6 Zn/6ins.deriv. were included.

Substance | Kav 2 Zn peak 1 (2 zinc/hexamer) | Relative area % peak 1 (2 zinc/hexamer) [%] | Kav 6 Zn peak 1 (6 zinc/hexamer) | Relative area % peak 1 (6 zinc/hexamer) [%]
B29Nε-hexadecandioyl-gamma-Glu-(3-(2-{2-[2-(2-amino-ethoxy)-ethoxy]-ethoxy}-ethoxy)-propionyl desB30 human insulin | 0.09 | 79 | 0.06 | 89
B29Nε-(4-{[(2-Carboxy-ethyl)-(15-carboxy-pentadecanoyl)-amino]-methyl}-benzoyl) desB30 human insulin | 0.01 | 84 | 0.00 | 98
B29Nε-[(5-{[(2-Carboxy-ethyl)-(15-carboxy-pentadecanoyl)-amino]-methyl}-furan-2-carbonyl) desB30 human insulin | 0.02 | 81 | 0.03 | 96
B29Nε-(2-{[(2-Carboxy-ethyl)-(15-carboxy-pentadecanoyl)-amino]-methyl}-benzoyl) desB30 human insulin | 0.16 | 54 | 0.03 | 93
B29Nε-(4-{[(2-Carboxy-ethyl)-(14-carboxy-tetradecanoyl)-amino]-methyl}-benzoyl) desB30 human insulin | 0.09 | 55 | 0.00 | 96
